For four substances, stoichiometry N results are on record in article PMC6980832, “Crystal structures of Triosephosphate Isomerases from Taenia solium and Schistosoma mansoni provide insights for vaccine rationale and drug design against helminth parasites” (PLoS Neglected Tropical Diseases, 2020).

Holding throughout (assay): SEC; gel filtration elution profile of wild-type and point mutants of SmTPI; conditions not shown
Background: In gel filtration, larger molecules generally elute earlier.

Experiment [1] addresses SmTPI-C221D (Schistosoma mansoni).
Experiment [2] addresses SmTPI-C221K (Schistosoma mansoni).
For experiment [3], the target named is SmTPI-C221S (Schistosoma mansoni).
The target of experiment [4] is SmTPI-C221Y (Schistosoma mansoni).

In the case of SmTPI-C221D (enzyme), the stoichiometry N in experiment [1] came out at 2.

Take SmTPI-C221K (enzyme): in experiment [2], the stoichiometry N came out at 2.

For SmTPI-C221S (enzyme), in experiment [3], the stoichiometry N came out at 2.

SmTPI-C221Y (enzyme): the stoichiometry N in experiment [4] was 2.

A word on the stoichiometry N: it is a count of units in the complex or per binding partner.
